The results in this text go back to US8206955B2, “Production of monatin and monatin precursors” (Cargill, Incorporated, priority 2003, dated 2012).

Holding throughout (format): biochemical
Data set [1] is described as follows: in vitro monatin production with aldolase and aminotransferase. The conditions noted are these: 30 μg/mL KHG enzyme, 50 mM Tris pH 8.3, saturating tryptophan, one hour.
Data set [2] in a line: tryptophan aminotransferase activity, production of indole-pyruvic acid. The following applies: for Specific Activity: 5 mM L-tryptophan, 30 minutes at 30° C.; for tryptophan aminotransferase activity (in words): recombinant clones expressed in E. coli. As to the method: (§1) Cell extracts were analyzed by SDS-PAGE, and assayed for tryptophan aminotransferase activity by following production of indole-pyruvic acid using the following protocol. One mL reactions were carried out in 50 mM sodium tetraborate (pH 8.5), 0.5 mM EDTA, 0.5 mM sodium arsenate, 50 μM pyridoxal phosphate, 5 mM α-ketoglutarate, and 5 mM L-tryptophan. The reactions were initiated by the addition of cell free extracts or purified enzyme and were incubated 30 minutes at 30° C. 20% TCA (200 μL) was added to stop the reaction, and the precipitated protein was removed by centrifugation. The absorbance at 327 nm was measured and compared to a standard curve of freshly prepared indole-3-pyruvate in the assay buffer. Control reactions without the substrate tryptophan or using cell-free extracts from clones transformed with pET30a alone were also performed.
Due to background from the native E. coli aminotransferases in cell extracts, the recombinant fusion proteins each containing an aminotransferase protein fused to the pET30 amino terminal HIS6-Tag/S-Tag (6×HIS tag disclosed as SEQ ID NO: 90) were purified using immobilized metal affinity chromatography with His-Bind cartridges following manufacturer's protocols (Novagen, Madison, Wis.). The HIS6-Tag sequence (SEQ ID NO: 90) of the fusion proteins binds to the divalent Ni^2+ cations immobilized on IDA-based His-Bind resin. The eluent fractions were desalted on PD-10 (Amersham Biosciences, Piscataway, N.J.) columns and eluted in 50 mM Tris, pH 7.0. Purified proteins were analyzed by SDS-PAGE and assayed for aminotransferase activity.
(§2) Table 1 lists the specific activities measured in micrograms of indole-3-pyruvate (I3P) formed per milligram protein per minute. […] In these cases a ‘>’ precedes the specific activity number.

Data set [3] is described as follows: monatin aminotransferase assay (loss of monatin by LC/MS). How it is done:
Transamination activity. Monatin aminotransferase assays were conducted with the aspartate aminotransferase (AspC) from E. coli, the tyrosine aminotransferase (TyrB) from E. coli, the broad substrate aminotransferase (BSAT) from L. major, and the two commercially available porcine glutamate-oxaloacetate aminotransferases described in Example 1. Both oxaloacetate and alpha-ketoglutarate were tested as the amino acceptor. The assay mixture contained (in 0.5 mL) 50 mM Tris-HCl, pH 8.0, 0.05 mM PLP, 5 mM amino acceptor, 5 mM monatin, and 25 μg of aminotransferase. The assays were incubated at 30° C. for 30 minutes, and the reactions were stopped by addition of 0.5 mL isopropyl alcohol. The loss of monatin was monitored by LC/MS (Example 6). […] The relative activity with oxaloacetate was: BSAT>AspC>porcine type IIa>porcine type I=TyrB. The relative activity with alpha-ketoglutarate was: BSAT>AspC>porcine type I>porcine type IIa>TyrB.

Data set [4] is described as follows: aminotransferase activity using D-tryptophan as substrate. The conditions noted are these: purified (P). How it is done:
as §1, with “One mL reactions were carried out in 50 mM sodium tetraborate (pH 8.5), 0.5 mM EDTA, 0.5 mM sodium arsenate, 50 μM pyridoxal phosphate, 5 mM α-ketoglutarate, and 5 mM L-tryptophan.” left out
as §2

B1: E. coli KHG: 4-hydroxy-2-oxoglutarate glyoxylate lyase (KHG aldolase) from E. coli (protein, UniProt P0A955 1-213, looked up)
KHG/KDPG aldolase: MKNWKTSAESILTTGPVVPVIVVKKLEHAVPMAKALVAGGVRVLEVTLRTECAVDAIRAIAKEVPEAIVGAGTVLNPQQLAEVTEAGAQFAISPGLTEPLLKAATEGTIPLIPGISTVSELMLGMDYGLKEFKFFPAEANGGVKALQAIAGPFSQVRFCPTGGISPANYRDYLALKSVLCIGGSWLVPADALEAGDYDRITKLAREAVEGAKL
The molecule B1 yielded a monatin produced in data set [1] of 3000 ng/mL.

B2: S. meliloti tatA: Sinorhizobium meliloti tyrosine aminotransferase (tatA, SEQ ID NOS: 1 and 2) (protein, listed as Sinorhizobium meliloti)
chain: MFDALARQADDPLLFLIGLFRKDERPGKVDLGVGVYRDETGRTPIFRAVKAAEKRLLETQDSKAYIGPEGDLVFLDRLWELVGGDTIERSHVAGVQTPGGSGALRLAADLIARMGGRGIWLGLPSWPNHAPIFKAAGLDIATYDFFDIPSQSVIFDNLVSALEGAASGDAVLLHASCHNPTGGVLSEAQWMEIAALVAERGLLPLVDLAYQGFGRGLDQDVAGLRHLLGVVPEALVAVSCSKSFGLYRERAGAIFARTSSTASADRVRSNLAGLARTSYSMPPDHGAAVVRTILDDPELRRDWTEELETMRLRMTGLRRSLAEGLRTRWQSLGAVADQEGMFSMLPLSEAEVMRLRTEHGIYMPASGRINIAGLKTAEAAEIAGKFTSL
For B2, the “Specific Activity” value in data set [2] (cell extracts (CE)) was above 28.6 μg I3P/mg protein/min; in data set [2] (purified (P)) it was above 931 μg I3P/mg protein/min. Further, the “tryptophan aminotransferase activity (in words)” value in data set [2] is recorded as “significant levels of tryptophan aminotransferase activity”. The “conversion of monatin to MP (in words)” value in data set [3] (similar assays, conditions tested) is reported as “did not appear to detectably convert monatin to MP”.

B3: L. major bsat: Leishmania major broad substrate aminotransferase (bsat, SEQ ID NOS: 7 and 8) (protein)
chain: MSMQAAMTTAERWQKIQAQAPDVIFDLAKRAAAAKGPKANLVIGAYRDEQGRPYPLRVVRKAEQLLLDMNLDYEYLPISGYQPFIDEAVKIIYGNTVELENLVAVQTLSGTGAVSLGAKLLTRVFDAETTPIYLSDPTWPNHYGVVKAAGWKNICTYAYYDPKTVSLNFEGMKKDILAAPDGSVFILHQCAHNPTGVDPSQEQWNEIASLMLAKHHQVFFDSAYQGYASGSLDTDAYAARLFARRGIEVLLAQSFSKNMGLYSERAGTLSLLLKDKTKRADVKSVMDSLIREEYTCPPAHGARLAHLILSNNELRKEWEAELSAMAERIRTMRRTVYDELLRLQTPGSWEHVINQIGMFSFLGLSKAQCEYCQNHNIFITVSGRANMAGLTHETALMLAQTINDAVRNVNRE
modifications: Leishmania major
With B3, the “Specific Activity” value in data set [2] (cell extracts (CE)) is given as above 49.3 μg I3P/mg protein/min; in data set [2] (purified (P)), above 4280 μg I3P/mg protein/min. Besides, the “tryptophan aminotransferase activity (in words)” value in data set [2] is given as “significant levels of tryptophan aminotransferase activity”. For the same molecule, the “monatin transamination activity (in words)” value in data set [3] (oxaloacetate as the amino acceptor, 5 mM monatin, 25 μg aminotransferase, 30° C. 30 minutes) is on record as “highest amount of activity”.

B4: B. subtilis D-aminotransf.: Bacillus subtilis D-alanine aminotransferase (dat) (protein, UniProt O07597 1-282, looked up)
D-alanine aminotransferase: MKVLVNGRLIGRSEASIDLEDRGYQFGDGIYEVIRVYKGVLFGLREHAERFFRSAAEIGISLPFSIEDLEWDLQKLVQENAVSEGAVYIQTTRGVAPRKHQYEAGLEPQTTAYTFTVKKPEQEQAYGVAAITDEDLRWLRCDIKSLNLLYNVMTKQRAYEAGAFEAILLRDGVVTEGTSSNVYAVINGTVRTHPANRLILNGITRMNILGLIEKNGIKLDETPVSEEELKQAEEIFISSTTAEIIPVVTLDGQSIGSGKPGPVTKQLQAAFQESIQQAASIS
Turning to B4, the “Specific Activity” value in data set [4] is recorded as 2.7 μg I3P/mg protein/min.
